From the supplement of paper PMC9112550, “Optimization of the antimicrobial peptide Bac7 by deep mutational scanning” (BMC Biology, 2022)

System: Escherichia coli TOP10
Assay: shrunken log2 fold change of peptide-encoding DNA abundance (4.5 h post-induction vs induction); higher = less antimicrobial activity (less host growth inhibition)
Conditions: time post-induction: 4.5 h; library: site-saturation at positions 5, 18, 19, 20
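Also: peptides expressed intracellularly from a pBAD plasmid library in pooled LB shake-flask culture, induced with 0.3% L-arabinose, DNA abundance read by NGS, three biological replicates, DESeq2 with apeglm shrinkage.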

RRIRYRPPRLPRPRPRPEWAPRP
shrunken log2 fold change: 0.193

RRIRYRPPRLPRPRPRPEWNPRP
shrunken log2 fold change: -0.861

RRIRYRPPRLPRPRPRPEYIPRP
shrunken log2 fold change: -0.348

RRIRYRPPRLPRPRPRPEYLPRP
shrunken log2 fold change: -0.139

RRIRYRPPRLPRPRPRPFCFPRP
shrunken log2 fold change: -0.114

RRIRYRPPRLPRPRPRPFCVPRP
shrunken log2 fold change: -0.264

RRIRYRPPRLPRPRPRPFDAPRP
shrunken log2 fold change: -0.485

RRIRYRPPRLPRPRPRPFDRPRP
shrunken log2 fold change: -1.29

RRIRYRPPRLPRPRPRPFDTPRP
shrunken log2 fold change: -1.81

RRIRYRPPRLPRPRPRPFEDPRP
shrunken log2 fold change: -0.057

RRIRYRPPRLPRPRPRPFEIPRP
shrunken log2 fold change: -0.17

RRIRYRPPRLPRPRPRPFGEPRP
shrunken log2 fold change: -0.00973

RRIRYRPPRLPRPRPRPFGSPRP
shrunken log2 fold change: -0.0685

RRIRYRPPRLPRPRPRPFGVPRP
shrunken log2 fold change: -0.306

RRIRYRPPRLPRPRPRPFGWPRP
shrunken log2 fold change: 0.102

RRIRYRPPRLPRPRPRPFHCPRP
shrunken log2 fold change: -0.0983

RRIRYRPPRLPRPRPRPFHFPRP
shrunken log2 fold change: -0.19

RRIRYRPPRLPRPRPRPFKIPRP
shrunken log2 fold change: 0.0602

RRIRYRPPRLPRPRPRPFKQPRP
shrunken log2 fold change: -1.41

RRIRYRPPRLPRPRPRPFLTPRP
shrunken log2 fold change: -0.871

RRIRYRPPRLPRPRPRPFMDPRP
shrunken log2 fold change: -0.2

RRIRYRPPRLPRPRPRPFNFPRP
shrunken log2 fold change: -0.771

RRIRYRPPRLPRPRPRPFNNPRP
shrunken log2 fold change: 2.81

RRIRYRPPRLPRPRPRPFNVPRP
shrunken log2 fold change: 0.0019

RRIRYRPPRLPRPRPRPFPSPRP
shrunken log2 fold change: -0.0392

RRIRYRPPRLPRPRPRPFQSPRP
shrunken log2 fold change: -0.0418

RRIRYRPPRLPRPRPRPFRTPRP
shrunken log2 fold change: -0.0801

RRIRYRPPRLPRPRPRPFTEPRP
shrunken log2 fold change: -0.955

RRIRYRPPRLPRPRPRPFTIPRP
shrunken log2 fold change: -0.00992

RRIRYRPPRLPRPRPRPFTSPRP
shrunken log2 fold change: -0.0993

RRIRYRPPRLPRPRPRPFTWPRP
shrunken log2 fold change: -1.51

RRIRYRPPRLPRPRPRPFVDPRP
shrunken log2 fold change: -0.0498

RRIRYRPPRLPRPRPRPFVIPRP
shrunken log2 fold change: -0.31

RRIRYRPPRLPRPRPRPFVLPRP
shrunken log2 fold change: -0.855

RRIRYRPPRLPRPRPRPFWCPRP
shrunken log2 fold change: -0.208

RRIRYRPPRLPRPRPRPFWHPRP
shrunken log2 fold change: -0.556

RRIRYRPPRLPRPRPRPGADPRP
shrunken log2 fold change: -0.177

RRIRYRPPRLPRPRPRPGCCPRP
shrunken log2 fold change: -0.309

RRIRYRPPRLPRPRPRPGDDPRP
shrunken log2 fold change: -0.286

RRIRYRPPRLPRPRPRPGDQPRP
shrunken log2 fold change: 0.0121

RRIRYRPPRLPRPRPRPGEEPRP
shrunken log2 fold change: 0.0322

RRIRYRPPRLPRPRPRPGEKPRP
shrunken log2 fold change: 0.0799

RRIRYRPPRLPRPRPRPGEYPRP
shrunken log2 fold change: -0.0574

RRIRYRPPRLPRPRPRPGGHPRP
shrunken log2 fold change: -0.278

RRIRYRPPRLPRPRPRPGHIPRP
shrunken log2 fold change: 0.0162

RRIRYRPPRLPRPRPRPGHPPRP
shrunken log2 fold change: -0.0687

RRIRYRPPRLPRPRPRPGHVPRP
shrunken log2 fold change: -0.59

RRIRYRPPRLPRPRPRPGIEPRP
shrunken log2 fold change: -0.276

RRIRYRPPRLPRPRPRPGIFPRP
shrunken log2 fold change: -0.708

RRIRYRPPRLPRPRPRPGKTPRP
shrunken log2 fold change: -0.0233

RRIRYRPPRLPRPRPRPGLYPRP
shrunken log2 fold change: -0.486

RRIRYRPPRLPRPRPRPGPQPRP
shrunken log2 fold change: -0.151

RRIRYRPPRLPRPRPRPGQRPRP
shrunken log2 fold change: 0.212

RRIRYRPPRLPRPRPRPGRFPRP
shrunken log2 fold change: -0.0548

RRIRYRPPRLPRPRPRPGSNPRP
shrunken log2 fold change: -0.0401

RRIRYRPPRLPRPRPRPGSRPRP
shrunken log2 fold change: -0.3

RRIRYRPPRLPRPRPRPGSVPRP
shrunken log2 fold change: -0.101

RRIRYRPPRLPRPRPRPGTWPRP
shrunken log2 fold change: 0.585

RRIRYRPPRLPRPRPRPHATPRP
shrunken log2 fold change: -0.191

RRIRYRPPRLPRPRPRPHDSPRP
shrunken log2 fold change: -0.08

RRIRYRPPRLPRPRPRPHEPPRP
shrunken log2 fold change: -0.133

RRIRYRPPRLPRPRPRPHFDPRP
shrunken log2 fold change: 0.144

RRIRYRPPRLPRPRPRPHFFPRP
shrunken log2 fold change: -0.518

RRIRYRPPRLPRPRPRPHIFPRP
shrunken log2 fold change: -0.255

RRIRYRPPRLPRPRPRPHIKPRP
shrunken log2 fold change: -0.887

RRIRYRPPRLPRPRPRPHKFPRP
shrunken log2 fold change: -0.609

RRIRYRPPRLPRPRPRPHKQPRP
shrunken log2 fold change: -0.0853

RRIRYRPPRLPRPRPRPHLIPRP
shrunken log2 fold change: -0.103

RRIRYRPPRLPRPRPRPHLTPRP
shrunken log2 fold change: -0.466

RRIRYRPPRLPRPRPRPHLYPRP
shrunken log2 fold change: -1.35

RRIRYRPPRLPRPRPRPHMAPRP
shrunken log2 fold change: -0.155

RRIRYRPPRLPRPRPRPHMPPRP
shrunken log2 fold change: -0.38

RRIRYRPPRLPRPRPRPHNHPRP
shrunken log2 fold change: -1.01

RRIRYRPPRLPRPRPRPHPIPRP
shrunken log2 fold change: -0.0356

RRIRYRPPRLPRPRPRPHTAPRP
shrunken log2 fold change: -0.57

RRIRYRPPRLPRPRPRPHVNPRP
shrunken log2 fold change: -0.0934

RRIRYRPPRLPRPRPRPHVSPRP
shrunken log2 fold change: 0.0324

RRIRYRPPRLPRPRPRPHWTPRP
shrunken log2 fold change: -0.0421

RRIRYRPPRLPRPRPRPHYHPRP
shrunken log2 fold change: -0.241

RRIRYRPPRLPRPRPRPHYTPRP
shrunken log2 fold change: -0.936

RRIRYRPPRLPRPRPRPIAIPRP
shrunken log2 fold change: -0.217

RRIRYRPPRLPRPRPRPICMPRP
shrunken log2 fold change: -0.018

RRIRYRPPRLPRPRPRPIDIPRP
shrunken log2 fold change: -0.0256

RRIRYRPPRLPRPRPRPIDQPRP
shrunken log2 fold change: -0.0356

RRIRYRPPRLPRPRPRPIDTPRP
shrunken log2 fold change: -0.0431

RRIRYRPPRLPRPRPRPIFRPRP
shrunken log2 fold change: -0.258

RRIRYRPPRLPRPRPRPIGDPRP
shrunken log2 fold change: -0.00783

RRIRYRPPRLPRPRPRPIGWPRP
shrunken log2 fold change: 0.11

RRIRYRPPRLPRPRPRPIHNPRP
shrunken log2 fold change: -0.438

RRIRYRPPRLPRPRPRPIHYPRP
shrunken log2 fold change: -0.655

RRIRYRPPRLPRPRPRPIIDPRP
shrunken log2 fold change: -1

RRIRYRPPRLPRPRPRPILCPRP
shrunken log2 fold change: -0.0389

RRIRYRPPRLPRPRPRPIMGPRP
shrunken log2 fold change: -0.0134

RRIRYRPPRLPRPRPRPINSPRP
shrunken log2 fold change: -0.184

RRIRYRPPRLPRPRPRPIQHPRP
shrunken log2 fold change: -0.89

RRIRYRPPRLPRPRPRPIREPRP
shrunken log2 fold change: -0.271

RRIRYRPPRLPRPRPRPIRWPRP
shrunken log2 fold change: -0.114

RRIRYRPPRLPRPRPRPISDPRP
shrunken log2 fold change: -0.237

RRIRYRPPRLPRPRPRPITAPRP
shrunken log2 fold change: -0.00947

RRIRYRPPRLPRPRPRPITEPRP
shrunken log2 fold change: -0.101

RRIRYRPPRLPRPRPRPIVAPRP
shrunken log2 fold change: -0.246

RRIRYRPPRLPRPRPRPIYMPRP
shrunken log2 fold change: -0.22

RRIRYRPPRLPRPRPRPIYNPRP
shrunken log2 fold change: 0.36

RRIRYRPPRLPRPRPRPKAEPRP
shrunken log2 fold change: 0.0881

RRIRYRPPRLPRPRPRPKAFPRP
shrunken log2 fold change: 0.0171

RRIRYRPPRLPRPRPRPKCAPRP
shrunken log2 fold change: 0.0118

RRIRYRPPRLPRPRPRPKCFPRP
shrunken log2 fold change: -0.0925

RRIRYRPPRLPRPRPRPKCWPRP
shrunken log2 fold change: 0.14

RRIRYRPPRLPRPRPRPKEDPRP
shrunken log2 fold change: -0.122

RRIRYRPPRLPRPRPRPKEGPRP
shrunken log2 fold change: -0.186

RRIRYRPPRLPRPRPRPKEHPRP
shrunken log2 fold change: -0.366

RRIRYRPPRLPRPRPRPKFFPRP
shrunken log2 fold change: 0.131

RRIRYRPPRLPRPRPRPKGMPRP
shrunken log2 fold change: -0.111

RRIRYRPPRLPRPRPRPKIGPRP
shrunken log2 fold change: -0.177

RRIRYRPPRLPRPRPRPKIQPRP
shrunken log2 fold change: -0.68

RRIRYRPPRLPRPRPRPKKLPRP
shrunken log2 fold change: -0.647

RRIRYRPPRLPRPRPRPKNNPRP
shrunken log2 fold change: -1.02

RRIRYRPPRLPRPRPRPKPDPRP
shrunken log2 fold change: 0.0117

RRIRYRPPRLPRPRPRPKQWPRP
shrunken log2 fold change: 0.0575

RRIRYRPPRLPRPRPRPKSYPRP
shrunken log2 fold change: -0.101

RRIRYRPPRLPRPRPRPKTFPRP
shrunken log2 fold change: -0.251

RRIRYRPPRLPRPRPRPKVKPRP
shrunken log2 fold change: -0.233

RRIRYRPPRLPRPRPRPKWCPRP
shrunken log2 fold change: -0.00875

RRIRYRPPRLPRPRPRPKYNPRP
shrunken log2 fold change: -1.24

RRIRYRPPRLPRPRPRPKYWPRP
shrunken log2 fold change: -0.726

RRIRYRPPRLPRPRPRPLCVPRP
shrunken log2 fold change: -0.722

RRIRYRPPRLPRPRPRPLDEPRP
shrunken log2 fold change: 3.09

RRIRYRPPRLPRPRPRPLDHPRP
shrunken log2 fold change: -0.119

RRIRYRPPRLPRPRPRPLDSPRP
shrunken log2 fold change: -0.403

RRIRYRPPRLPRPRPRPLFFPRP
shrunken log2 fold change: -0.751

RRIRYRPPRLPRPRPRPLFLPRP
shrunken log2 fold change: -0.171

RRIRYRPPRLPRPRPRPLGLPRP
shrunken log2 fold change: -0.126

RRIRYRPPRLPRPRPRPLGWPRP
shrunken log2 fold change: 0.0401

RRIRYRPPRLPRPRPRPLHMPRP
shrunken log2 fold change: -0.116

RRIRYRPPRLPRPRPRPLIAPRP
shrunken log2 fold change: -0.668

RRIRYRPPRLPRPRPRPLIEPRP
shrunken log2 fold change: -0.442

RRIRYRPPRLPRPRPRPLKRPRP
shrunken log2 fold change: -0.234

RRIRYRPPRLPRPRPRPLLDPRP
shrunken log2 fold change: -0.296

RRIRYRPPRLPRPRPRPLLMPRP
shrunken log2 fold change: -0.547

RRIRYRPPRLPRPRPRPLMHPRP
shrunken log2 fold change: -1.02

RRIRYRPPRLPRPRPRPLNAPRP
shrunken log2 fold change: -0.859

RRIRYRPPRLPRPRPRPLPCPRP
shrunken log2 fold change: -0.413

RRIRYRPPRLPRPRPRPLPVPRP
shrunken log2 fold change: -0.142

RRIRYRPPRLPRPRPRPLQHPRP
shrunken log2 fold change: -0.688

RRIRYRPPRLPRPRPRPLQTPRP
shrunken log2 fold change: 0.0147

RRIRYRPPRLPRPRPRPLRDPRP
shrunken log2 fold change: 0.0739

RRIRYRPPRLPRPRPRPLSCPRP
shrunken log2 fold change: -0.0548

RRIRYRPPRLPRPRPRPLVAPRP
shrunken log2 fold change: -0.274

RRIRYRPPRLPRPRPRPLVGPRP
shrunken log2 fold change: -0.457

RRIRYRPPRLPRPRPRPLWLPRP
shrunken log2 fold change: 0.0113
